This passage reports IC50 results from patent publication US20230141962A1.

The target of the assay is SARS-CoV-2 spike protein S1 subunit (WIV4) (SARS-CoV-2 (isolate 2019-nCoV, WIV4)), P0DTC2. The conditions noted are these: remark: other sources report otherwise.

B1: scFv clone #26 (scFv)
scFv: QAVLTQAPSASGTLGQQVTISCSGTTSNIGRNTVNWYQHLPGTAPKLLIFVSNQRPSGVPDRFSGSKSGTSASLVISGLQSEDEADYYCGAWDDSLDGMLFGGGTKLTVLGSRGGGGSGGGGSGGGGSLEMAQVQLVQSGAEVKKPGASVKVSCKASGYTFTSYGISWVRQAPGQGLEWMGWISAYNGNTNYAQKLQGRVTMTTDTSTSTAYMELRSLRSDDTAVYYCARGYYGDLDPWGQGTLVTVSSTSGQAGQ
The term IC50 denotes the concentration at which inhibition is half-maximal. Molecule B1 showed an IC50 of 1.33 nM.
